pKd: −log10 of the molar value.
How the values were obtained:
[1] = target: CD86/CD80; settings: CD28 interaction with CD86/CD80; reported; cited from earlier work
[2] = target: T1, His-MATH (Homo sapiens, UniProt O43791); assay: Peptide competition assay in the in vitro Pup modification of MATH by PUP-IT^pep1; assay type: biochemical; settings: free peptide added at 1-512 μM; 0.2 μM His-MATH, 8 μM Pup(E); anti-His immunoblot
T1 construct: made in house; host or cells: E. coli BL21(DE3)
Description: Pup modification were assayed at 37° C. for 30 min with purified recombinant proteins in a 20 μl reaction volume with 20 mM Tris 8.0, 100 mM NaCl, 10 mM ATP, and 15 mM MgCl2. The reaction also contains purified 1 μM PUP-IT, 10 μM Pup(E) or 10 mM bio-DE28. All the reactions were stopped by direct addition of 6×SDS loading buffer and analyzed on 4-20% SDS-PAGE gels (Genescript, cat. #M42015C).
Peptide competition assay (as in FIG. 2d) was performed in the presence of different peptides. Free pep1 (sequence […], SEQ ID NO: 12) and control peptide (sequence […], SEQ ID NO: 15) were synthesized and purified to >98% pure, confirmed by mass spectrometry. The peptides were dissolved in water and pH adjusted with Tris buffer to 7, stored as 2 mM stock in −80° C. The reactions were set up with 1 μM pup^SBC1, 0.2 μM His-MATH, and 8 μM Pup(E). Different amount of free pep1 or control peptide was added to each reaction to make the final peptide concentration at 1, 2, 4, 8, 16, 32, 64, 128, 256, and 512 μM. All the reactions were stopped by direct addition of 6×SDS loading buffer and analyzed on 4-20% SDS-PAGE gels, followed by immune-blotting with anti-His antibody to identify both unmodified and modified MATH. The density of modified MATH was quantified with ImageJ and then plotted with GraphPad Prism 6.

[3] = target: MATH domain from human SPOP (Homo sapiens, UniProt O43791); settings: peptide binding to MATH domain from human SPOP; known values; read-out: dissociation constant (Kd); cited from earlier work
Sequence of MATH domain from human SPOP (O43791 31-161 limits assumed): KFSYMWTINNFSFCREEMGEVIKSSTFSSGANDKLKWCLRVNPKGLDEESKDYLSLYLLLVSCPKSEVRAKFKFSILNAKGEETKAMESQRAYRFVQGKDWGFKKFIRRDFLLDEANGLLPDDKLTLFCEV

T1 sequence (O43791 31-161 limits assumed): as above

Substance | pKd [1] | inhibition of MATH modification [2] | pKd [3]
CD28: co-stimulating receptor normally expressed on the surface of T cells | 5.40 | – | –
SPOP substrate-derived MATH-binding peptide LACDEVTSTTSSSTA (SEQ ID NO: 12) [pep1] | – | dose-dependent inhibition of MATH modification | 5.43
SPOP substrate-derived MATH-binding peptide SELDSPSSTSSSSGI (SEQ ID NO: 14), the weakest binder [pep3] | – | – | < 3.60
SPOP substrate-derived MATH-binding peptide TLFPDVSSSTHPYHG (SEQ ID NO: 13) [pep2] | – | – | 4.12
pep1(mut): mutated pep1 peptide LACDEDTAAASSSTA (SEQ ID NO: 15), known to have defect on MATH binding | – | could not be fully inhibited | –
